Results published in patent publication US7893197B2, “Relaxin-3 chimeric polypeptides and their preparation and use” (Janssen Pharmaceutica N.V., priority 2005, dated 2011).

Key:
GPCR135 = molecular target: T1, GPCR135 (Homo sapiens, UniProt Q9NSD7); experiment: Radioligand competition binding, [125I]-relaxin-3, membranes of transfected COS-7 cells; conditions: for binding / affinity for GPCR135, in words: highest concentration 1 μM
T1 construct: expressed in transfected cells
T1 sequence (Q9NSD7 1-469): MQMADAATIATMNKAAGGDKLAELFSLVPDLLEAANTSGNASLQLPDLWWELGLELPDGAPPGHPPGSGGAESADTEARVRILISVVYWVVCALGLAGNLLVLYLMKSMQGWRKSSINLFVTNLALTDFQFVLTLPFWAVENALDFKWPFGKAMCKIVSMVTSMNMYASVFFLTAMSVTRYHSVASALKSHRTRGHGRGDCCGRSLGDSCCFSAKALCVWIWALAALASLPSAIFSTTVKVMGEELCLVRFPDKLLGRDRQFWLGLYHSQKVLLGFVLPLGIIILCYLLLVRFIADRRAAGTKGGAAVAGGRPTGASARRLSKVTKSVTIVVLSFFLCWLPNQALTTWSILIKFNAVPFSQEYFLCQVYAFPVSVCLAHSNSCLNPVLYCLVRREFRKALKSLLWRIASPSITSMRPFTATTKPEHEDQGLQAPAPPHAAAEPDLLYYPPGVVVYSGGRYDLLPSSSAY
Description: For GPCR135, GPCR142, and LGR7, [^125I]-relaxin-3 was used as the radioligand at a final concentration of 100 pM. Different unlabeled peptides were used in the binding assay as the competitors. […] Different unlabeled peptides including relaxin-3 chimeras at various concentrations were added to the binding assay as the competitors.

LGR8 = molecular target: T2, LGR8 (Homo sapiens, UniProt Q8WXD0); experiment: Radioligand competition binding, [125I]-INSL3, live transfected COS-7 cells; conditions: highest concentration 1 μM
T2 construct: Human LGR8 cDNA containing the complete coding region was PCR amplified; expressed in transfected cells
T2 sequence (Q8WXD0 whole entry): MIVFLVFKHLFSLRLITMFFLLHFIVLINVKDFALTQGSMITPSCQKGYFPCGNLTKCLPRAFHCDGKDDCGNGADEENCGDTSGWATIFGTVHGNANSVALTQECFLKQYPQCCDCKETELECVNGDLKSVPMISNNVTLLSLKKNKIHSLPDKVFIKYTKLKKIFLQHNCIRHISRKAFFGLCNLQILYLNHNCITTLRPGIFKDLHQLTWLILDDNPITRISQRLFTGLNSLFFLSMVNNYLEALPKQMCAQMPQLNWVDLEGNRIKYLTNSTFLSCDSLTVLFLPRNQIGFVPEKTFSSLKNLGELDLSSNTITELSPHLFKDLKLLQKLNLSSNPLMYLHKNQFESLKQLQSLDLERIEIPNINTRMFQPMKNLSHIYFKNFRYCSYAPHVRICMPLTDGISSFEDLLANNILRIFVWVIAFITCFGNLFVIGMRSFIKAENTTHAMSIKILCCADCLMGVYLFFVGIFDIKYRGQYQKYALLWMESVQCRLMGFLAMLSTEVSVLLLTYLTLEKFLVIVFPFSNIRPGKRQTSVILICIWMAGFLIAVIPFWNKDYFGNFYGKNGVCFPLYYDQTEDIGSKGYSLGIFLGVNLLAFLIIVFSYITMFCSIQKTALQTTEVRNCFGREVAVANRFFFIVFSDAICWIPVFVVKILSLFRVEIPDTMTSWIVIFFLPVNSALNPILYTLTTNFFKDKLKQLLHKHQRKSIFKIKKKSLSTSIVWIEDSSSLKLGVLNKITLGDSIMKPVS
From the text: (§1) FIGS. 3A-3D illustrate the characterization of various relaxin-3 chimeric polypeptides using radioligand binding assays. Different relaxin-3 chimeric polypeptides were characterized for their receptor binding properties for human recombinant GPCR135 (FIG. 3A), GPCR142 (FIG. 3B), LGR7 (FIG. 3C), or LGR8 (FIG. 3D). For GPCR135, GPCR142, and LGR7, [^125I]-relaxin-3 was used as the radioligand at a final concentration of 100 pM. Different unlabeled peptides were used in the binding assay as the competitors. For LGR8, [^125I]-INSL3 was used as the radioligand at a final concentration of 100 pM. Different unlabeled peptides including relaxin-3 chimeras at various concentrations were added to the binding assay as the competitors. Data represent mean±SEM (n=3).
Radioligand binding assays for LGR7 and LGR8 were performed using live COS-7 cells transiently transfected with LGR7 or LGR8 expression plasmids in 15-cm culture dishes using LipofectAmine (Invitrogen). Two days after transfection, the transfected cells were detached from the 15-cm culture dished using phosphate buffered saline (PBS) plus 10 mM EDTA, seeded into 96-well opaque poly-D-lysine coated culture plates and used for radioligand binding assays. For LGR7, [^125I]-relaxin-3 was used as the tracer. For LGR8, [^125I]-INSL3 (specific activity: 2200 Ci/mmol) was used as the tracer. [^125I]-labeled tracer was added in binding reactions at a final concentration of 100 pM in binding buffer containing DMEM plus 50 mM HEPES and 1% bovine serum albumin. Unlabeled relaxin-3 and relaxin-3 chimeric polypeptides were added at various concentrations to the binding assays as the competitors, as indicated (FIG. 3). The binding mixtures were incubated at room temperature for 1 hour. The unbound radioligand was removed by aspiration of the binding buffer. The cells were washed with PBS. The bound radioligand was counted in a scintillation counter (TopCount/NTX). The results were analyzed using Prism 3.0 program (Graphpad, San Diego, Calif.). The IC50 values represent the ligand concentrations that inhibit 50% of the maximum specific binding.

GPCR142 = molecular target: T3, GPCR142 (Homo sapiens, UniProt Q8TDU9, L329S); experiment: Radioligand competition binding, [125I]-relaxin-3, membranes of transfected COS-7 cells; conditions: for binding / affinity for GPCR142, in words: highest concentration 1 μM
T3 construct: expressed in transfected cells
T3 sequence (Q8TDU9 whole entry L329S): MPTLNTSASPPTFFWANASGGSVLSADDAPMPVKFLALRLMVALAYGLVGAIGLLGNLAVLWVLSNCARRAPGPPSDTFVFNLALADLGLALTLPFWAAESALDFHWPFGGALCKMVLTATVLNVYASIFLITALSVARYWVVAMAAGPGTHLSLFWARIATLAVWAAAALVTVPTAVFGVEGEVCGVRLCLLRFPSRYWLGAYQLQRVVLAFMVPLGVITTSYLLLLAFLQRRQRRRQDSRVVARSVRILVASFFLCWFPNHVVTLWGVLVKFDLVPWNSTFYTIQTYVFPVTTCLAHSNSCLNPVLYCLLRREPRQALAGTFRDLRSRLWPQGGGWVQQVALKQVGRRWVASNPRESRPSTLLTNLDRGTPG
From the text: as §1
Radioligand binding assays for GPCR135 and GPCR142 were performed as previously described (Liu et al., 2003, Journal of Biological Chemistry, 278:50754-50764 and Liu et al., 2003, Journal of Biological Chemistry, 278:50765-50770). Membranes from COS-7 cells transiently transfected with either the GPCR135 expression vector or the GPCR142 expression vector, each described supra, were incubated with [^125I]-relaxin-3 at a final concentration 100 pM in 96-well plates. Peptides for competition binding studies were added to the binding mix (final volume: 200 μl) in binding buffer [50 mM Tris-HCl, pH 7.5, 5 mM EDTA, 1% bovine serum albumin, 0.1% protease inhibitor cocktails (Sigma)]. The binding mixtures were incubated at room temperature for 1 hour, filtered through GFC plates (Packard) pre-saturated with 0.3% Polyethylenimine (Sigma), and washed with cold washing buffer (50 mM Tris-HCl, pH 7.5, 5 mM EDTA). Microscint-40 was added to each well and the bound [^125I]-relaxin-3 was counted in a scintillation counter (TopCount/NTX, Packard).

R3/I4: chimeric polypeptide: human relaxin-3 B-chain and INSL4 A-chain; mature polypeptide SEQ ID NO:22 (RAAPYGVRLCGREFIRAVIFTCGGSRWFDPFCCEVICDDGTSVKLC; Human Relaxin-3/Insulin-like 4 chimeric mature polypeptide)
binding / affinity for GPCR135, in words (GPCR135): marginal binding at the highest concentration (1 μM) | binding affinity for LGR8, in words (LGR8): no binding affinity | binding / affinity for GPCR142, in words (GPCR142): marginal binding at the highest concentration (1 μM)

R3/I5: chimeric polypeptide: human relaxin-3 B-chain and INSL5 A-chain; mature polypeptide SEQ ID NO:23 (RAAPYGVRLCGREFIRAVIFTCGGSRWQDLQTLCCTDGCSMTDLSALC; Human Relaxin-3/Insulin-like 5 chimeric mature polypeptide)
binding / affinity for GPCR135, in words (GPCR135): subnanomolar | binding affinity for LGR8, in words (LGR8): no binding affinity | binding / affinity for GPCR142, in words (GPCR142): low nanomolar range

R3/I6: chimeric polypeptide: human relaxin-3 B-chain and INSL6 A-chain; mature polypeptide SEQ ID NO:24 (RAAPYGVRLCGREFIRAVIFTCGGSRWGYSEKCCLTGCTKEELSIAC; Human Relaxin-3/Insulin-like 6 chimeric mature polypeptide)
affinity for GPCR135 (GPCR135; discussion): 10 to 15 nM | binding affinity for LGR8, in words (LGR8): no binding affinity | affinity for GPCR142 (GPCR142; discussion): 10 to 15 nM
